The source of these data is US20230272029A1, “CO-AGONISTS AT GLP-1 AND GIP RECEPTORS SUITABLE FOR ORAL DELIVERY” (Novo Nordisk A/S, priority 2020, published 2023).

Starred links: 1 amine or outer side, 2 acyl side, 3 side chain; linkers in the order of their positions; H or OH if unused. Non-standard residues stand in square brackets, D forms with d. Groups on a side chain read outwards from the residue. No end group written: not given here. *: point of attachment. C18 diacid = O=C(O)CCCCCCCCCCCCCCCCC(=O)*; γGlu = O=C(O)[C@H](CCC(=O)[*:2])N[*:1]; εLys = N[C@@H](CCCCN[*:1])C(=O)[*:2]; Aib = CC(C)(N)C(=O)O

Assay [1] addresses T1, human GIP receptor (human, UniProt P48546 22-466).
T1 sequence (looked up): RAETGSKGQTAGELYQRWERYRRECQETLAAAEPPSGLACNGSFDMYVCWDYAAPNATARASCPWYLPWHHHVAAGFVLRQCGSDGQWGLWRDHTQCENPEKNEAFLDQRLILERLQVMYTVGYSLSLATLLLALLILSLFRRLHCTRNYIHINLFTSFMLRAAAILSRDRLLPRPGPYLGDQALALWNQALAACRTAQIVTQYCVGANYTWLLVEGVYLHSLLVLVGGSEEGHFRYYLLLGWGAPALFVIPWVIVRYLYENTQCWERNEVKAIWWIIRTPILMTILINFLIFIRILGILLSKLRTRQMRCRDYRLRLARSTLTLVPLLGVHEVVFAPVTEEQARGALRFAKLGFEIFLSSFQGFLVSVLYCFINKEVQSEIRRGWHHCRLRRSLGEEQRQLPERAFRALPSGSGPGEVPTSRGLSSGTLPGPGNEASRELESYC
As to the kind of experiment: cell-based or functional assay.

The target of assay [2] is human GLP-1 receptor (human, UniProt P43220 24-463). As to the kind of experiment: cell-based or functional assay.

B1: Compound No. 27 (peptide)
peptide: Y[Aib]EGTFTSDYSILLEK([εLys-εLys-γGlu-C18 diacid])QAAREFIEWLLRGGPSSGAPPPS-OH
modifications: N-terminus assumed
SMILES: CC[C@H](C)[C@H](NC(=O)[C@H](Cc1ccccc1)NC(=O)[C@H](CCC(=O)O)NC(=O)[C@H](CCCNC(=N)N)NC(=O)[C@H](C)NC(=O)[C@H](C)NC(=O)[C@H](CCC(N)=O)NC(=O)[C@H](CCCCNC(=O)[C@@H](N)CCCCNC(=O)[C@@H](N)CCCCNC(=O)CC[C@H](NC(=O)CCCCCCCCCCCCCCCCC(=O)O)C(=O)O)NC(=O)[C@H](CCC(=O)O)NC(=O)[C@H](CC(C)C)NC(=O)[C@H](CC(C)C)NC(=O)[C@@H](NC(=O)[C@H](CO)NC(=O)[C@H](Cc1ccc(O)cc1)NC(=O)[C@H](CC(=O)O)NC(=O)[C@H](CO)NC(=O)[C@@H](NC(=O)[C@H](Cc1ccccc1)NC(=O)[C@@H](NC(=O)CNC(=O)[C@H](CCC(=O)O)NC(=O)C(C)(C)NC(=O)[C@@H](N)Cc1ccc(O)cc1)[C@@H](C)O)[C@@H](C)O)[C@@H](C)CC)C(=O)N[C@@H](CCC(=O)O)C(=O)N[C@@H](Cc1c[nH]c2ccccc12)C(=O)N[C@@H](CC(C)C)C(=O)N[C@@H](CC(C)C)C(=O)N[C@@H](CCCNC(=N)N)C(=O)NCC(=O)NCC(=O)N1CCC[C@H]1C(=O)N[C@@H](CO)C(=O)N[C@@H](CO)C(=O)NCC(=O)N[C@@H](C)C(=O)N1CCC[C@H]1C(=O)N1CCC[C@H]1C(=O)N1CCC[C@H]1C(=O)N[C@@H](CO)C(=O)O
With B1, in assay [1], the “hGIPR, CRE Luc 0% HSA EC50 (pM)” value turned out to be 6.3 pM and the “hGIPR, CRE Luc 1% HSA EC50 (pM)” value stood at 132 pM. In addition, in assay [2], the “hGLP-1R, CRE Luc 0% HSA EC50 (pM)” value came to 4.6 pM and the “hGLP-1R, CRE Luc 1% HSA EC50 (pM)” value amounted to 127 pM.

B2: Compound No. 39 (peptide)
peptide: Y[Aib]EGTFTSDYSILLEEQAARK([εLys-εLys-γGlu-C18 diacid])FINWLLAGGPSSGAPPPS-OH
modifications: N-terminus assumed
SMILES: CC[C@H](C)[C@H](NC(=O)[C@H](Cc1ccccc1)NC(=O)[C@H](CCCCNC(=O)[C@@H](N)CCCCNC(=O)[C@@H](N)CCCCNC(=O)CC[C@H](NC(=O)CCCCCCCCCCCCCCCCC(=O)O)C(=O)O)NC(=O)[C@H](CCCNC(=N)N)NC(=O)[C@H](C)NC(=O)[C@H](C)NC(=O)[C@H](CCC(N)=O)NC(=O)[C@H](CCC(=O)O)NC(=O)[C@H](CCC(=O)O)NC(=O)[C@H](CC(C)C)NC(=O)[C@H](CC(C)C)NC(=O)[C@@H](NC(=O)[C@H](CO)NC(=O)[C@H](Cc1ccc(O)cc1)NC(=O)[C@H](CC(=O)O)NC(=O)[C@H](CO)NC(=O)[C@@H](NC(=O)[C@H](Cc1ccccc1)NC(=O)[C@@H](NC(=O)CNC(=O)[C@H](CCC(=O)O)NC(=O)C(C)(C)NC(=O)[C@@H](N)Cc1ccc(O)cc1)[C@@H](C)O)[C@@H](C)O)[C@@H](C)CC)C(=O)N[C@@H](CC(N)=O)C(=O)N[C@@H](Cc1c[nH]c2ccccc12)C(=O)N[C@@H](CC(C)C)C(=O)N[C@@H](CC(C)C)C(=O)N[C@@H](C)C(=O)NCC(=O)NCC(=O)N1CCC[C@H]1C(=O)N[C@@H](CO)C(=O)N[C@@H](CO)C(=O)NCC(=O)N[C@@H](C)C(=O)N1CCC[C@H]1C(=O)N1CCC[C@H]1C(=O)N1CCC[C@H]1C(=O)N[C@@H](CO)C(=O)O
With B2, in assay [1], the “hGIPR, CRE Luc 0% HSA EC50 (pM)” value was 28.4 pM and the “hGIPR, CRE Luc 1% HSA EC50 (pM)” value was 365 pM. In assay [2], the “hGLP-1R, CRE Luc 0% HSA EC50 (pM)” value was determined as 8.2 pM and the “hGLP-1R, CRE Luc 1% HSA EC50 (pM)” value was determined as 135 pM.

B3: Compound No. 25 (peptide)
peptide: Y[Aib]EGTFTSDYSILLEK([εLys-εLys-γGlu-C18 diacid])QAAEEFINWLLAGGPSSGAPPPS-OH
modifications: N-terminus assumed
SMILES: CC[C@H](C)[C@H](NC(=O)[C@H](Cc1ccccc1)NC(=O)[C@H](CCC(=O)O)NC(=O)[C@H](CCC(=O)O)NC(=O)[C@H](C)NC(=O)[C@H](C)NC(=O)[C@H](CCC(N)=O)NC(=O)[C@H](CCCCNC(=O)[C@@H](N)CCCCNC(=O)[C@@H](N)CCCCNC(=O)CC[C@H](NC(=O)CCCCCCCCCCCCCCCCC(=O)O)C(=O)O)NC(=O)[C@H](CCC(=O)O)NC(=O)[C@H](CC(C)C)NC(=O)[C@H](CC(C)C)NC(=O)[C@@H](NC(=O)[C@H](CO)NC(=O)[C@H](Cc1ccc(O)cc1)NC(=O)[C@H](CC(=O)O)NC(=O)[C@H](CO)NC(=O)[C@@H](NC(=O)[C@H](Cc1ccccc1)NC(=O)[C@@H](NC(=O)CNC(=O)[C@H](CCC(=O)O)NC(=O)C(C)(C)NC(=O)[C@@H](N)Cc1ccc(O)cc1)[C@@H](C)O)[C@@H](C)O)[C@@H](C)CC)C(=O)N[C@@H](CC(N)=O)C(=O)N[C@@H](Cc1c[nH]c2ccccc12)C(=O)N[C@@H](CC(C)C)C(=O)N[C@@H](CC(C)C)C(=O)N[C@@H](C)C(=O)NCC(=O)NCC(=O)N1CCC[C@H]1C(=O)N[C@@H](CO)C(=O)N[C@@H](CO)C(=O)NCC(=O)N[C@@H](C)C(=O)N1CCC[C@H]1C(=O)N1CCC[C@H]1C(=O)N1CCC[C@H]1C(=O)N[C@@H](CO)C(=O)O
For the molecule B3, in assay [1], the “hGIPR, CRE Luc 0% HSA EC50 (pM)” value came out at 7.2 pM and the “hGIPR, CRE Luc 1% HSA EC50 (pM)” value turned out to be 263 pM. For the same molecule, in assay [2], the “hGLP-1R, CRE Luc 0% HSA EC50 (pM)” value came to 15.5 pM and the “hGLP-1R, CRE Luc 1% HSA EC50 (pM)” value amounted to 740 pM.

B4: Compound No. 26 (peptide)
peptide: Y[Aib]EGTFTSDYSILLEK([εLys-εLys-γGlu-C18 diacid])QAAHEFINWLLAGGPSSGAPPPS-OH
modifications: N-terminus assumed
SMILES: CC[C@H](C)[C@H](NC(=O)[C@H](Cc1ccccc1)NC(=O)[C@H](CCC(=O)O)NC(=O)[C@H](Cc1c[nH]cn1)NC(=O)[C@H](C)NC(=O)[C@H](C)NC(=O)[C@H](CCC(N)=O)NC(=O)[C@H](CCCCNC(=O)[C@@H](N)CCCCNC(=O)[C@@H](N)CCCCNC(=O)CC[C@H](NC(=O)CCCCCCCCCCCCCCCCC(=O)O)C(=O)O)NC(=O)[C@H](CCC(=O)O)NC(=O)[C@H](CC(C)C)NC(=O)[C@H](CC(C)C)NC(=O)[C@@H](NC(=O)[C@H](CO)NC(=O)[C@H](Cc1ccc(O)cc1)NC(=O)[C@H](CC(=O)O)NC(=O)[C@H](CO)NC(=O)[C@@H](NC(=O)[C@H](Cc1ccccc1)NC(=O)[C@@H](NC(=O)CNC(=O)[C@H](CCC(=O)O)NC(=O)C(C)(C)NC(=O)[C@@H](N)Cc1ccc(O)cc1)[C@@H](C)O)[C@@H](C)O)[C@@H](C)CC)C(=O)N[C@@H](CC(N)=O)C(=O)N[C@@H](Cc1c[nH]c2ccccc12)C(=O)N[C@@H](CC(C)C)C(=O)N[C@@H](CC(C)C)C(=O)N[C@@H](C)C(=O)NCC(=O)NCC(=O)N1CCC[C@H]1C(=O)N[C@@H](CO)C(=O)N[C@@H](CO)C(=O)NCC(=O)N[C@@H](C)C(=O)N1CCC[C@H]1C(=O)N1CCC[C@H]1C(=O)N1CCC[C@H]1C(=O)N[C@@H](CO)C(=O)O
With B4, in assay [1], the “hGIPR, CRE Luc 0% HSA EC50 (pM)” value was found to be 4.9 pM and the “hGIPR, CRE Luc 1% HSA EC50 (pM)” value came to 153 pM. Also, in assay [2], the “hGLP-1R, CRE Luc 0% HSA EC50 (pM)” value is 7.4 pM and the “hGLP-1R, CRE Luc 1% HSA EC50 (pM)” value worked out at 595 pM.

B5: Compound No. 28 (peptide)
peptide: Y[Aib]EGTFTSDYSILLEK([εLys-εLys-γGlu-C18 diacid])QAAREFIEWLLRGGPESGAPPPS-OH
modifications: N-terminus assumed
SMILES: CC[C@H](C)[C@H](NC(=O)[C@H](Cc1ccccc1)NC(=O)[C@H](CCC(=O)O)NC(=O)[C@H](CCCNC(=N)N)NC(=O)[C@H](C)NC(=O)[C@H](C)NC(=O)[C@H](CCC(N)=O)NC(=O)[C@H](CCCCNC(=O)[C@@H](N)CCCCNC(=O)[C@@H](N)CCCCNC(=O)CC[C@H](NC(=O)CCCCCCCCCCCCCCCCC(=O)O)C(=O)O)NC(=O)[C@H](CCC(=O)O)NC(=O)[C@H](CC(C)C)NC(=O)[C@H](CC(C)C)NC(=O)[C@@H](NC(=O)[C@H](CO)NC(=O)[C@H](Cc1ccc(O)cc1)NC(=O)[C@H](CC(=O)O)NC(=O)[C@H](CO)NC(=O)[C@@H](NC(=O)[C@H](Cc1ccccc1)NC(=O)[C@@H](NC(=O)CNC(=O)[C@H](CCC(=O)O)NC(=O)C(C)(C)NC(=O)[C@@H](N)Cc1ccc(O)cc1)[C@@H](C)O)[C@@H](C)O)[C@@H](C)CC)C(=O)N[C@@H](CCC(=O)O)C(=O)N[C@@H](Cc1c[nH]c2ccccc12)C(=O)N[C@@H](CC(C)C)C(=O)N[C@@H](CC(C)C)C(=O)N[C@@H](CCCNC(=N)N)C(=O)NCC(=O)NCC(=O)N1CCC[C@H]1C(=O)N[C@@H](CCC(=O)O)C(=O)N[C@@H](CO)C(=O)NCC(=O)N[C@@H](C)C(=O)N1CCC[C@H]1C(=O)N1CCC[C@H]1C(=O)N1CCC[C@H]1C(=O)N[C@@H](CO)C(=O)O
In the case of B5, in assay [1], the “hGIPR, CRE Luc 0% HSA EC50 (pM)” value was determined as 6.6 pM and the “hGIPR, CRE Luc 1% HSA EC50 (pM)” value came to 86.5 pM. In assay [2], the “hGLP-1R, CRE Luc 0% HSA EC50 (pM)” value was 6.2 pM and the “hGLP-1R, CRE Luc 1% HSA EC50 (pM)” value stood at 139 pM.
